The domain aggregation screens of Martell et al. (2025)

Test: soluble fraction after stress (log2 fold change); higher = more stays soluble; pooled small domains, quantitative proteomics
Conditions: stress: 75 degC
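Further: 20 min heating vs room temperature control held 20 min.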

Sequence	soluble fraction (log2)
HMNDPIESLTPREREVLTLMAEGRTNAAIAAQLVVTEGAVEKHTQHIFAKLGLLPDSAVHRRVKAVLALLS	-2.35
HMGSEEMLGALGVVERATDDGDWWIAVHGEHWRARSAQALVPGDRVRVARIDGLTLTVTPIA	-0.632
HMAKIEVENLEETILENLKANNGFMPYNDKTSPEEIYEVFHVSKKHFKNSLGGLMKKGLIFQNEKGTKL	-0.193
HMDDLSPEENKVIGAQVREELARRRLSRQHLADKAKISLSTLEKALTGTRPFTLASVVRIEEALQLQLRK	-1.35
HMDYVKTLGETINVRVAASTDADIYKLLPGGEILNRVGYNEEWTKVMVDGSTFYVYSEYVIQTEPPA	-1.32
HMDKEPTHLHTFRLIKEGKSSEEIAEIRNITLGTVNTHLAKLIAVGELTIEQVISKHRLDYVMEAIKNSK	0.176
HMNTLSPVRILAILDGRSSMAEWQLAEELGVSIDNLSEILNKMSTDGQIRLVPSEDGRMVVP	0.597
HMTGIVVVDVVGQVGRPGLVSLPAGSRVADAITAAGGATPEADVSLLNQARLVIDGEQIRVPRPGEVIAA	-0.0555
HMFTKSNLEKLSNSELILKAIDSGNYSKIEFGGSEALNPDVPSYKKDLKNREELIEILSEMGM	0.148
HMLSVRNRMSDVLKSLDDGEFHRFESLFNLEEGRLGVVVTFLAMLELAKEMLVEIVQNESLGPIYLKSR	0.041
HMAEPAEDLLSLEGMDKGLAYQLASNGVVTREDLAELATDDLLEIREMDAEQAAALIMKAREHWFEAEQQ	0.755
HMDPPVDLTPREQQVLSRIALGMSDKAIAAELGVSHQTVRNHVARIYAKIKVHSRSQAIVWAREKGIP	-2.36
HMINEVVSLRDVPSFIGKAKRDVIRIAEENNLKIKINGNGYVKEQTPNPGNKYKSNQEIKVFLEPG	-0.0743
HMSTKRGEILEFLKDFSARKGYAPSVREIMQAVGLKSTASVHYHLSELHKAGLITVDGTKNRAISLA	-1.11
HMDGAPVTVIKNGEVDVATTMRVGLSASELMFKLRAAGVDEVQIVHRAVLEQNGQLTIIKYGEE	-2.03
HMVGQIISNARKQEKMTQSELAEKVGTNKTYISRIEKGVIEPGVGLFFRIIDALGLKIEIVKP	-2.07
HMLIGLNETESLVLDALIANPMRIDQVSAMLKKDVATTLKFLGGLSVRGLVETLFGGRFAPTKIALHARS	0.0549
HMATVIDVATTLGRPITDPDEQRQVLNWIGKTERIISARLGDLAALDRQILADVISEVVARRARN	-0.495
HMSGLVPAIGTKGEEGYIRESDIPGSNVKNPEEALAYMEWLKTQPSELLIPLYDEQGNVIGQFAVS	0.461

Sequence	soluble fraction (log2)
HMFEEPYLATYPVLIDPKLAFNVLDTMLEGLEVKMDQDEETGAISVLAPASIHTKITEYLDALSKQ	-0.0924
HMETVVTEVKTTDVVNIRTSDSETADKLSKAAIGDTFPLLEERGNGWSKVAYNGEEAFIKSDYLEPSKTE	0.0124
HMPVQPMDPSIEHISALTGKQFQAFPGQDHRAHMTAHLNFMSTNIVRNNPAVMGAIQKNILEHISLMAQEQ	0.322
HMSEEQLKAFLEKVQGDTSLQEKLKAAADANAVVEIAKEAGFSISADDLKNAQSELSEEELE	-0.00468
HMKPLIIPLELMQRLSSDKQLEAGFNRFSKSKQHEFAAYIAAAKRVETKVKRLEKIIPLILSGEGLNDR	-2.35
HMFTEEQMDWLRLIKDHIVASLSILPEDLELTPFDRKGGLLGFYDAFGDEYEKILQEMNEELVA	-0.567
HMKSSYSGNFKQNVVEYMHNNHLSATETANHFKLGGGSVVLRWERIYYEEGPQALYEERRGR	-1.26
HMGDLVKGKVVGYDPDNVIVDIGAKTNALVPNREAVVEAGDDIKETLKKGNEYEFLIIRDEDEEGEFL	0.24
HMTEKIEWYKEVLELEPNSKVFFPLARMLAEEQRFDEAVAVLEHGLERHGEFLEARLFFIELLHET	-3.16
HMKQDYYSILGVMRDASQEEIKRAYLDAAQRLHPDRNTSAGDTEMFLDVQQAYEVLSNPKRRAQYDATLP	0.383
HMPAPAPDIPYHSRVSVRRADGFYEGTWTNTAPILDYTGRWMVNVSLGGKRVFVPVEEVVVH	-1.05
HMALKQADFDFIRQMIQQRAAIVLDDNKHYFVESRLGPVVEETGSKSLDQLIDQLRSSSNSLLQQKVTEAI	-0.372
HMDEVPMPPEYQYLRVGSRVHHATFGWGKVTRLSQPWPQTRAEVFFENIGPKKLVLAHAHLTMD	-3.26
HMAKRPRFEDVIKEINTEIQKRKGKWNLTILSWMDFDDVAQVIRIHIYRKWHLYDPSKPLGPWLNR	-0.339
HMDNVQLRNFAIKATEASIIYLDQEQRNFFWYNNNKKLMTVPFDENPYSAFAAYLKTDEGSEVYKAIEKKF	-1.97
HMISSKDIINDEDGARLGKIADVEIDVATGKILSVHVYRSFKLLHLFGNKDVVQIPWNKIMKIGSDVVIVE	0.102
HMQETMTNDEVISLTKAGLSSSIIIGKIRSSATNFDLSTDSLIKLKQAGVSDETVAAMLEAKS	0.0249
HMGTEITEQRAKEIALENAKVAESDVTAMRVKKEMDDGVWRYDVEFYVQNKEYDYEINAMDGTILSVDYD	-0.00128
HMQADTATITGNGVNMRSGPGTNYQIIDTIPKGTVAEVLSQQDGWVKIYSARISGWVSASYVEIKQT	-2.5
